The values that follow come from patent US20220033501A1 (SHANGHAI PHARMAEXPLORER, published 2022).

First the molecules themselves.
T1: human TIM-3 extracellular domain protein with hFc tag (hTIM-3-hFc) (human, UniProt Q8TDQ0 22-200)
T1 construct: not shown: human IgG Fc fragment (hFc) of the pCpC vector
T1 sequence: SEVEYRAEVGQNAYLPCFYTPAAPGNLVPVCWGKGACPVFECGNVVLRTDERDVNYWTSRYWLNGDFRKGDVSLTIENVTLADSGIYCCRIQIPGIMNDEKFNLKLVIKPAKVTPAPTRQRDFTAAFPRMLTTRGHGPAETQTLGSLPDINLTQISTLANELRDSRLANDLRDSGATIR

T2: murine TIM-3 extracellular domain protein with hFc tag (mTIM-3-hFc) (mouse, UniProt Q8VIM0 29-191)
T2 construct: also called mouse TIM-3 extracellular domain protein; not shown: human IgG Fc fragment (hFc) of the pCpC vector
T2 chain: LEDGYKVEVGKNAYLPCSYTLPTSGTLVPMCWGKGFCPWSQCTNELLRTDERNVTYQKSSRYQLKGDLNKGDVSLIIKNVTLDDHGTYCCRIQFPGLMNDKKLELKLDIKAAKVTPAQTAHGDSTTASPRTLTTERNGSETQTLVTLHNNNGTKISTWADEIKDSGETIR

T3: monkey TIM-3 protein with hFc tag (cTIM-3-hFc protein) (monkey; human)
T3 construct: Made in HEK293 cells; also called monkey TIM-3 extracellular domain protein; not shown: human IgG Fc fragment (hFc) of the pCpC vector
T3 chain: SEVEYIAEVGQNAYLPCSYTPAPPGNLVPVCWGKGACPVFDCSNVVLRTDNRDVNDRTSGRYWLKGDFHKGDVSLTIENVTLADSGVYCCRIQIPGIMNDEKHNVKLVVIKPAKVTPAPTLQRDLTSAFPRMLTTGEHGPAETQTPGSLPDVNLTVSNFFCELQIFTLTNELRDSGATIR

B1: 7A4F10 fully human TIM-3 antibody (human IgG4, kappa) (antibody, V domains shown)
VH: EVQLLESGGGLVQPGGSLRLSCAASGFTFRTHLISWVRQAPGKGLEWVAAITGSGGSTYYADSVKGRFIISRDNSKNTLFLQMNSLRAEDTAVYYCAKDGGSGSYDDFWGQGTLVTVSS
VL: ETVLTQSPVTLSLSPGERATLSCRASQSVGSYLAWYQQKPGQAPRLLIYDASNRATGIPARFSGSGSGTDFTLTISSLEPEDFAVYYCQQRSNWPPTFGQGTKVEIK
B2: 134H3G6 fully human TIM-3 antibody (human IgG4, kappa) (antibody, V domains shown)
VH: EVQLVESGGGLVQPGGSLRLSCAASGFTFSNSWMTWVRQAPGKGLEWVANIKQAGTEKYYVDSVKGRFTISRDNAKNSLYLQMNSLRAEDTAVYYCNSGSNYFDYWGQGTLVTVSS
VL: EIVMTQSPATLSVSPGERATLSCRARQNFYSNLAWYQQKPGQAPRLLIYGASTRATGIPARFSGSGSGTEFTLTISSLQSEDFAVYYCQQYNNWPLTFGGGTKVEIK
B3: 18D2H2 fully human TIM-3 antibody (human IgG4, kappa) (antibody, V domains shown)
VH: EVQLVESGGDLVQPGGSLRLSCAASGFTFSTYWMTWVRQAPGRGLEWVANIKQDGSAKYYVDSVKGRFTLSRDDAKNSLYLQMNSLRAEDTAVYYCARGSNWFDYWGQGTLVTVSS
VL: B2 VL with I2T, R26N, F29V, G50D, I58F
B4: 215A8F2 fully human TIM-3 antibody (human IgG4, kappa) (antibody, V domains shown)
VH: QVQLQQWGAGLLKPSETLSLTCTVYGGSFSGYYWNWIRQPPGKGLEWLGEINHSGSTNYNPSLKRRVTISVDTSKNQFSLKLSSVTAADTAVYYCARVYYYGPFDFWGQGTLVTVSS
VL: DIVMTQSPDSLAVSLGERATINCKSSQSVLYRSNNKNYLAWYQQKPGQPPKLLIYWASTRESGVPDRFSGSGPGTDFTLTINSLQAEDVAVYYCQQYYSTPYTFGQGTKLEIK
B5: 34B6D8 fully human TIM-3 antibody (human IgG4, kappa) (antibody, V domains shown)
VH: B3 VH with D10G, R43K, G44R, D54G, S56G, A57D, L70I, R72T, D74N, Y105P
VL: EIVMTQSPATLSMSPGERATLSCRASQSVYDNLAWYQQKPGQAPRLLIYGASTRATGIPARFSGSGSGTEFTLTISSLQSEDFALYYCQQYTHWPITFGQGTRLEIK
B6: 57F4E5 fully human TIM-3 antibody (human IgG4, kappa) (antibody, V domains shown)
VH: EVQLVESGGGLVQPGGSLRLSCAASGFTFSSYWMSWVRQAPGKGLEWVANIKQDGSEKYYVDSVKGRFTISRDSAKNSLYLQMNSLRAEDTAMYFCARDSNFFDYWGQGTLVTVSS
VL: B2 VL with I2T, R26S, N28S, F29V, Y30S, Q38R, G50F, A51S
B7: 39E5H1 fully human TIM-3 antibody (human IgG4, kappa) (antibody, V domains shown)
VH: EVQLVESGGGLVQPGGSLRLSCAASGFTFSSYWMSWVRQAPGKGLEWVANIKRGGSERYYVDSVKGRFTISGDNAKNSVYLQMNSLRAEDTAVYYCARGSNWFDPWGQGTLVTVSS
VL: B5 VL with I2T, T10I, M13V, D31S, P40L, G50D, L85V, T92N, H93N
B8: 7A4F10 (TIM-3 antibody purified from hybridoma, chimeric antibody of Example 2) (antibody, V domains shown)
VH: B1 VH
VL: B1 VL
notes: From hybridoma of Harbour H2L2 transgenic mice: human variable regions, rat constant regions
B9: 34B6D8 (TIM-3 antibody purified from hybridoma, chimeric antibody of Example 2) (antibody, V domains shown)
VH: B7 VH with S31T, S35T, G44R, R53Q, S56G, E57D, R58K, G72T, V79L
VL: B5 VL
notes: as for B8
B10: 39E5H1 (TIM-3 antibody purified from hybridoma, chimeric antibody of Example 2) (antibody, V domains shown)
VH: B7 VH
VL: B5 VL with I2T, T10I, M13V, D31S, P40L, G50D, L85V, T92N, H93N
notes: as for B8
B11: 134H3G6 (TIM-3 antibody purified from hybridoma, chimeric antibody of Example 2) (antibody, V domains shown)
VH: B2 VH
VL: B2 VL
notes: as for B8
B12: 57F4E5 (TIM-3 antibody purified from hybridoma, chimeric antibody of Example 2) (antibody, V domains shown)
VH: B6 VH
VL: B2 VL with I2T, R26S, N28S, F29V, Y30S, Q38R, G50F, A51S
notes: as for B8
B13: 18D2H2 (TIM-3 antibody purified from hybridoma, chimeric antibody of Example 2) (antibody, V domains shown)
VH: B3 VH
VL: B2 VL with I2T, R26N, F29V, G50D, I58F
notes: as for B8
B14: 215A8F2 (TIM-3 antibody purified from hybridoma, chimeric antibody of Example 2) (antibody, V domains shown)
VH: B4 VH
VL: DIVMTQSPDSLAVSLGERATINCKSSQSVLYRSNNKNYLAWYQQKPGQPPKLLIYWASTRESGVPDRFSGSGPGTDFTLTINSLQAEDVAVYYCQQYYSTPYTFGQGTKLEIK
notes: as for B8

Changes are numbered by the printed parent chain.

The target in the first assay is T1, human TIM-3 extracellular domain …. As to the kind of experiment: FACS, blocking of hTIM-3-hFc binding to phosphatidylserine on apoptotic Jurkat cells, 0.274 nM antibody. As for the experimental part:
(§1) Jurkat cells were treated with 1 μM staurosporine at 37° C. for 2 hours to induce apoptosis. The presence of phosphatidylserine was detected by Annexin V-FITC cell apoptosis detection kit. […] The cells were washed 1-2 times with PBS buffer, and after cell counting, the cells were diluted to 1-2×10⁶ cells per milliliter with binding buffer, and added to a 96-well FACS reaction plate at 100 microliters per well. The antibody sample to be tested and 2 μg/ml hTIM-3-hFc protein were prepared with binding buffer, and mixed equally in volume. The mixture was incubated at room temperature for 30 minutes, then the FACS reaction plate incubated with apoptotic cells was centrifuged to discard the supernatant, and the above mixture was added to the apoptotic cells at 100 microliters per well and incubated at room temperature for 1 hour. The plate was washed twice with the binding buffer by centrifugation, added with 100 microliters of fluorescent (Alexa 488)-labeled secondary antibodies per well, and incubated for half an hour. The plate was washed 2-3 times with the binding buffer by centrifugation, added with 100 microliters of PBS per well to suspend cells, and detected using FACS (FACS Calibur, BD) and the results were analyzed. The results are shown in Table 15 and FIG. 15, wherein the IgG control is human IgG, and the data in the table is the inhibition rate (%).
Consider B1, for which the “Inhibition ratio (%)” value was found to be 0.9%. Take B2: the “Inhibition ratio (%)” value turned out to be 8%. The same measure, in the same setting: then B3, with 5.4%; and B4, with 0.3%.

For a further assay the target is unchanged. Put plainly: FACS, blocking of hTIM-3-hFc binding to phosphatidylserine on apoptotic Jurkat cells, 2.469 nM antibody. The procedure: as §1
(Flow cytometry measures light scatter and fluorescence of single cells or particles in a stream.)
B1: the “Inhibition ratio (%)” value was 23.7%. Same read-out and setting: then B2, with 10.9%; and B3, with 27.4%; and B4, with 5.8%.

A further assay has the same target. Put plainly: FACS, blocking of hTIM-3-hFc binding to phosphatidylserine on apoptotic Jurkat cells, 0 nM antibody. As for the experimental part:
as §1
For B1, the “Inhibition ratio (%)” value is 0.5%. On the same count and under the same terms, in the case of B2 it was 5.5%; in that of B3, 1.4%. Turning to B4, the “Inhibition ratio (%)” value worked out at 1.6%.

The next assay deals with T2, murine TIM-3 extracellular domain …. Put plainly: ELISA, coated mouse TIM-3 ECD protein, 0.0667 nM antibody. A general note: In an ELISA, binding on a coated surface is turned into a signal by an enzyme label.
Molecule B1 returned an OD450 of 0.22. On the same count and under the same terms, in the case of B5 it was 0.25. Still for that read-out and setting: in the case of B6 it was 0.33. Same read-out and setting: then B2, with 0.21; and B3, with 0.22.

The molecule B7 gave an OD450 of 0.24.

Regarding B4, the OD450 stood at 0.31.

Another assay addresses T3, monkey TIM-3 protein with hFc tag …. As to the kind of experiment: ELISA, coated cTIM-3-hFc; antibody 0.0001 nM. From the text: The amino acid sequence 22-200 of the extracellular domain of the human TIM-3 protein described in the step of Example 1 (as shown in SEQ ID NO. 71 in the sequence listing) was cloned into a pCpC vector having a human IgG Fc fragment (hFc), and transfected into HEK293 cells. The cell culture medium was collected, and purified to obtain the human TIM-3 protein with hFc tag (herein referred to as hTIM-3-hFc protein). The amino acid sequence 22-201 of the extracellular domain of the monkey TIM-3 protein (as shown in SEQ ID NO. 72 in the sequence listing) was cloned into a pCpC vector having a human IgG Fc fragment (hFc), and transfected into HEK293 cells. The cell culture medium was collected, and purified to obtain the monkey TIM-3 protein with hFc tag (herein referred to as cTIM-3-hFc protein). […] The cell culture medium was collected, and purified to obtain the murine TIM-3 protein with hFc tag (herein referred to as mTIM-3-hFc protein). Purified human, monkey, and mouse TIM-3 extracellular domain proteins (hTIM-3-hFc, cTIM-3-hFc, and mTIM-3-hFc) were diluted with PBS to a final concentration of 1.0 μg/ml and then added to a 96-well ELISA plate with 100 μl per well. The plate was sealed with plastic film and incubated overnight at 4° C. The plate was washed 4 times with the plate washing solution (PBS+0.01% Tween20) on the next day, and added with the blocking solution (PBS+0.01% Tween20+1% BSA) and sealed at room temperature for 1-2 hours. The blocking solution was poured out. 50-100 μl of the antibody sample to be tested was added to each well. The plate was incubated at 37° C. for 1-2 hours, and washed 2-3 times with plate washing solution (PBS+0. 01% Tween20). HRP (horseradish peroxidase) labeled secondary antibody was added. The plate was incubated at 37° C. for 1-2 hours, and washed 2-3 times with plate washing solution (PBS+0. 01% Tween20). […] of TMB substrate was added to each well. After incubated at room temperature for 15-30 minutes, the plate was added with […] stop solution (1.0N HCl) to each well. An ELISA plate reader (TiterMax 384plus, Molecular Device) was used to read the A450 nm value.
On to B8, for which the OD450 was 0.54. The molecule B9 registered an OD450 of 0.57. The same measure, in the same setting: then B10, with 0.57; and B11, with 0.54.

In the case of B12, the OD450 worked out at 0.58. The same measure, in the same setting: then B13, with 0.53; and B14, with 0.52.
